From patent US20110021548A1, “INHIBITORS OF MALT1 PROTEOLYTIC ACTIVITY AND USES THEREOF” (priority 2007, published 2011)
Entries after “also recorded” stand apart in the source; their conditions may differ. code Z = not defined here

B1: A. thaliana serpin (AT1g47710): Arabidopsis thaliana serpin (AT1g47710), indicated as serpin-wt (protein)
chain: MDVRESISLQNQVSMNLAKHVITTVSQNSNVIFSPASINVVLSIIAAGSAGATKDQILSFLKFSSTDQLNSFSSEIVSAVLADGSANGGPKLSVANGAWIDKSLSFKPSFKQLLEDSYKAASNQADFQSKAVEVIAEVNSWAEKETNGLITEVLPEGSADSMTKLIFANALYFKGTWNEKFDESLTQEGEFHLLDGNKVTAPFMTSKKKQYVSAYDGFKVLGLPYLQGQDKRQFSMYFYLPDANNGLSDLLDKIVSTPGFLDNHIPRRQVKVREFKIPKFKFSFGFDASNVLKGLGLTSPFSGEEGLTEMVESPEMGKNLCVSNIFHKACIEVNEEGTEAAAASAGVIKLRGLLMEEDEIDFVADHPFLLVVTENITGVVLFIGQVVDPLH
B2: IKLA-mutant: mutant serpin in which the reactive center loop has been replaced by the sequence IKLA (SEQ ID NO:16) (protein)
chain: MDVRESISLQNQVSMNLAKHVITTVSQNSNVIFSPASINVVLSIIAAGSAGATKDQILSFLKFSSTDQLNSFSSEIVSAVLADGSANGGPKLSVANGAWIDKSLSFKPSFKQLLEDSYKAASNQADFQSKAVEVIAEVNSWAEKETNGLITEVLPEGSADSMTKLIFANALYFKGTWNEKFDESLTQEGEFHLLDGNKVTAPFMTSKKKQYVSAYDGFKVLGLPYLQGQDKRQFSMYFYLPDANNGLSDLLDKIVSTPGFLDNHIPRRQVKVREFKIPKFKFSFGFDASNVLKGLGLTSPFSGEEGLTEMVESPEMGKNLCVSNIFHKACIEVNEEGTEAAAASAGVIKLAGLLMEEDEIDFVADHPFLLVVTENITGVVLFIGQVVDPLH

Key:
Test in all cases: MALT1 paracaspase assay (Ac-LSSR-AMC cleavage, AMC release)
MALT1 [1] = format: biochemical, human; conditions: for Inhibition of the MALT1 paracaspase activity by A. thaliana serpin: FIG. 11, several serpin concentrations
MALT1 [2] = biological target: T1, MALT1 (Homo sapiens, UniProt Q9UDY8); format: biochemical; conditions: recombinant MALT1 p20 fragment; substrate 100 μM; inhibitor 100 μM
T1 construct: made in house
T1 sequence (Q9UDY8 334-824): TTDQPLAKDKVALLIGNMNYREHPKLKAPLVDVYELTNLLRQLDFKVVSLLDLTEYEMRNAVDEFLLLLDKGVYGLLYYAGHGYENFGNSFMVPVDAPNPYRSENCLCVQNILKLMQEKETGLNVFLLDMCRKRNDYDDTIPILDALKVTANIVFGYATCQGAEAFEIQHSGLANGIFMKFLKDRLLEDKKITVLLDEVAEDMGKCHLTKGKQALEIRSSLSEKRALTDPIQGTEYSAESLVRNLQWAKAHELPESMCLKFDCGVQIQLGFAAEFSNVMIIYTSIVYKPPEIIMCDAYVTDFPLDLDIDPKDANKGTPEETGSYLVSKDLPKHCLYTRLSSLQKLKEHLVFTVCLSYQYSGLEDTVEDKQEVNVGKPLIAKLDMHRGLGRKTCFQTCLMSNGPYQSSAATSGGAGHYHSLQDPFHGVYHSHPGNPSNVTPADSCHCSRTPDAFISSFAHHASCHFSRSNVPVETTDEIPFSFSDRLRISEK

MALT1 [3] = biological target: T2, MALT1 (Homo sapiens, UniProt Q9UDY8); format: biochemical; conditions: bio-IP purified MALT1 from HEK-293T cells; substrate 100 μM; inhibitor 100 μM (equimolar)
T2 construct: made in house
T2 sequence (Q9UDY8 2-824): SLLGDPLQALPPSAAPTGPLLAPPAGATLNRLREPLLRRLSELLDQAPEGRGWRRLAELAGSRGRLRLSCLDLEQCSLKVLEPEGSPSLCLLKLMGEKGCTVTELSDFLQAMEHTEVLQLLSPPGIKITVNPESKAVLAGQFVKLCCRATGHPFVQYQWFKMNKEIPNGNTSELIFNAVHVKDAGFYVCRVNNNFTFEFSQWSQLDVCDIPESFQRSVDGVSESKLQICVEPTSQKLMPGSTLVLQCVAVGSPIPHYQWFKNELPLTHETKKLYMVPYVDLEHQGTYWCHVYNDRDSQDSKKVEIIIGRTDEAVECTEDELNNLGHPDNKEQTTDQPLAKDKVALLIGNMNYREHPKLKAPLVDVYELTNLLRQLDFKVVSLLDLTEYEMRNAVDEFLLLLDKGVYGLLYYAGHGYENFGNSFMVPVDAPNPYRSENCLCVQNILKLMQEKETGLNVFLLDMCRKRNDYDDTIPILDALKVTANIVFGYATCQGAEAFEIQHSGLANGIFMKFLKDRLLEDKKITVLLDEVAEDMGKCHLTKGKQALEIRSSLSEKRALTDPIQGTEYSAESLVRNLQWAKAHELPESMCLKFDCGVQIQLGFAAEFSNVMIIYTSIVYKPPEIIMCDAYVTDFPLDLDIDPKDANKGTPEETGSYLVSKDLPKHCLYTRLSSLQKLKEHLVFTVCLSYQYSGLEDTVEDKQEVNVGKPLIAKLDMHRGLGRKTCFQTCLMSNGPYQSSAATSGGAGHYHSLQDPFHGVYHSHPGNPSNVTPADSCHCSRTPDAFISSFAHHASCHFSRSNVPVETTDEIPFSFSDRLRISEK

Molecule	Inhibition of the malt paracaspase activity in small compound screening (MALT1 [1]; FIG. 12, different concentrations)	Inhibition of Ac-LSSR-AMC cleavage by recombinant MALT1 (MALT1 [2])	Inhibition of Ac-LSSR-AMC cleavage by bio-IP purified MALT1 (MALT1 [3])	Inhibition of the MALT1 paracaspase activity by A. thaliana serpin (MALT1 [1])
Cc1ccc(-c2ccc(C=C3C(=O)NC(=S)NC3=O)o2)cc1Cl [Inh03, 5-{[5-(3-chloro-4-methylphenyl)-2-furyl]methylene}-2-thioxodihydro-4,6(1H,5H)-pyrimidinedione]	Inhibitory effect	–	–	–
Z-GASR-CHO: peptide derivate (tetrapeptide GASR, SEQ ID NO:2), inhibitor of MALT1 proteolytic activity ({code Z}-GASR-aldehyde; reading uncertain; also: printed as Z-GASR-CHO)	–	completely blocked	efficiently blocked	–
Z-LSSR-CHO: peptide derivate (tetrapeptide LSSR, SEQ ID NO:1), inhibitor of MALT1 proteolytic activity, purchased from Anaspec ({code Z}-LSSR-aldehyde; reading uncertain; also: printed as Z-LSSR-CHO)	–	completely blocked	inhibits MALT1 proteolytic activity; also recorded: efficiently blocked	–
B1	–	–	–	possible, but only at relatively high concentrations
B2	–	–	–	performing better than wild type serpin at higher concentrations
